The record followed here is patent US20220332804A1 (CSL INNOVATION, published 2022).

Common to all, as to experiment: SPR, antibody captured, C2 as analyte;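 note: biacore SPR at 37 °C, anti-C2 mAbs captured via goat anti-human IgG on CM5 chips, double-referenced sensorgrams fit to a 1:1 kinetic or steady-state model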
Background: SPR reads the build-up and loss of mass on a sensor chip optically.

One assay addresses T1, human C2 H435A (human, UniProt P06681 21-752).
T1 sequence: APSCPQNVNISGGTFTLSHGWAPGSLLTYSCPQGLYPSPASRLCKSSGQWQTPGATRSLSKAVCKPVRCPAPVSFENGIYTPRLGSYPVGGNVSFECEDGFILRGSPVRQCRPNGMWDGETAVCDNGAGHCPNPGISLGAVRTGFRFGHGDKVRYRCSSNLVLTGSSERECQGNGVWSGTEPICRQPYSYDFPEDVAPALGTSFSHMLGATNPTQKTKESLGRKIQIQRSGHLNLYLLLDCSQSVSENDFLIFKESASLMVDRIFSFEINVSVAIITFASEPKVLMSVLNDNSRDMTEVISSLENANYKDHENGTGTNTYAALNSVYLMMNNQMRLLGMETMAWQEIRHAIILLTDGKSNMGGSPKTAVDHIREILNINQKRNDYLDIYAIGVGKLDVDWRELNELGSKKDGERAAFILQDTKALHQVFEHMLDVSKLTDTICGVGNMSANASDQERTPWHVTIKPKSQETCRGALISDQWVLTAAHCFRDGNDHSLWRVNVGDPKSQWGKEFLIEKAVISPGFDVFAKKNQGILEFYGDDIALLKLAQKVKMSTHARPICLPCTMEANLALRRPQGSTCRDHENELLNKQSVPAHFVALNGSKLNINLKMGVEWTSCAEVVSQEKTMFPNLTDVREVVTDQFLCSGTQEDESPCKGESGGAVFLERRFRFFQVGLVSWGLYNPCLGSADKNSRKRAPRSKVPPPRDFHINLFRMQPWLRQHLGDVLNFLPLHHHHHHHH

For another assay, the target named is T2, human C2 D454A (human, UniProt P06681 21-752).
T2 sequence: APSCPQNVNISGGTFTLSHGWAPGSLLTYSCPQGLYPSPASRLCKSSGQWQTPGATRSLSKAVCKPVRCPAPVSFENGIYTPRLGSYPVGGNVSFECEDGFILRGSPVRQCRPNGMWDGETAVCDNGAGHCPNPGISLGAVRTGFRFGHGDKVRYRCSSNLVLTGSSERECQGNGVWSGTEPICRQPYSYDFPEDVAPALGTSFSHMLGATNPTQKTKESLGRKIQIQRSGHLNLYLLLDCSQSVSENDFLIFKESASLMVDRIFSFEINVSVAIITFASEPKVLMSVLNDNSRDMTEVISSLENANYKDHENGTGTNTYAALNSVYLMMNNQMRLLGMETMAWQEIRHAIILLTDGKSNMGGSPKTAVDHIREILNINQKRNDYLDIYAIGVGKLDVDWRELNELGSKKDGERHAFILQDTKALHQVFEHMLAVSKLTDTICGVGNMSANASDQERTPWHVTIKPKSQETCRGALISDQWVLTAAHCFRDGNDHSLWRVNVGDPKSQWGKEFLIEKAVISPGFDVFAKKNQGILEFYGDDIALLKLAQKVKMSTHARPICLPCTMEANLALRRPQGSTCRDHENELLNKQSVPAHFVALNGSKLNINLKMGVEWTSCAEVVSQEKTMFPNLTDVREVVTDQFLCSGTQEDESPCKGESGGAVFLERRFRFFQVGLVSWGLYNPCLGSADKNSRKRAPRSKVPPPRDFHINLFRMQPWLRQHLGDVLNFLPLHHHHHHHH

The target of the next assay is T3, human C2 F270A (human, UniProt P06681 21-752).
T3 sequence: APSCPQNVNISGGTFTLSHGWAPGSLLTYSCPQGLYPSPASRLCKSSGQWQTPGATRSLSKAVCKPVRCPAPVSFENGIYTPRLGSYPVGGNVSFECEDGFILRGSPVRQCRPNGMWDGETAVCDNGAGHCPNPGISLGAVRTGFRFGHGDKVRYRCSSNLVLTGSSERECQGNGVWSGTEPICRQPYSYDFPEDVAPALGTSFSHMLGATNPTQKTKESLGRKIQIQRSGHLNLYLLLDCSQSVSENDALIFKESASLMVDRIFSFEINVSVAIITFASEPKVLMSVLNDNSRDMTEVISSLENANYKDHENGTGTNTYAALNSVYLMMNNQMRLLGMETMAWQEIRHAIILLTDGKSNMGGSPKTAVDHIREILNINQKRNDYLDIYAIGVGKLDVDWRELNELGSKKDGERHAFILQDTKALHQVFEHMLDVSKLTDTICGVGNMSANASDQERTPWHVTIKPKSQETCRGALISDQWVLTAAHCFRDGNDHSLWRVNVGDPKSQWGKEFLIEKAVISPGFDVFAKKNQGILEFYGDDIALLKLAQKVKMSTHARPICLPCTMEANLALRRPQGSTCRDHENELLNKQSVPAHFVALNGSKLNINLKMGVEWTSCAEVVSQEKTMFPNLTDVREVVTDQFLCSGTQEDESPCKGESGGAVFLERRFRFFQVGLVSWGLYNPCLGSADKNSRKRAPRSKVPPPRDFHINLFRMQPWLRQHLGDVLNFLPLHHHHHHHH

A further assay has as its target T4, human C2 S708A (human, UniProt P06681 21-752).
T4 sequence: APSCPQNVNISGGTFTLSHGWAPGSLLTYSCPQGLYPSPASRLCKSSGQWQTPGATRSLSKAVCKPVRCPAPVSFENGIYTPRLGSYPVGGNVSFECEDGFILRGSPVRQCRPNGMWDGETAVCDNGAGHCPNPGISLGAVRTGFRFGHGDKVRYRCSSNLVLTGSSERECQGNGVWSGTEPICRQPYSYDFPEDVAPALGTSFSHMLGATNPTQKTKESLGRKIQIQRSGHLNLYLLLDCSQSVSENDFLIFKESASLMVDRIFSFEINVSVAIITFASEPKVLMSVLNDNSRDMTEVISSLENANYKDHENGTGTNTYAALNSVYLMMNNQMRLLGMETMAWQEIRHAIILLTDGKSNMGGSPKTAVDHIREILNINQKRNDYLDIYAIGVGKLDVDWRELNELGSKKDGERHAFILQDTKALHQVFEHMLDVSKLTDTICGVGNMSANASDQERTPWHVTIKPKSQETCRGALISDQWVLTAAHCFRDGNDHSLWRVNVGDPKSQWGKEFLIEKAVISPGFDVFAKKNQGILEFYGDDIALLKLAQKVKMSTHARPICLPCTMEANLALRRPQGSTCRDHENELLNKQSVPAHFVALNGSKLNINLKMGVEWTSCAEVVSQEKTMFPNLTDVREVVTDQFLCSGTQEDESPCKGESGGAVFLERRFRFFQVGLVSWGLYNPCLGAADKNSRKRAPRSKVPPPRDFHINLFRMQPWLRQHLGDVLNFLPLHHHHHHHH

B1: RF16-226 (antibody, human IgG4 S228P, lambda)
heavy: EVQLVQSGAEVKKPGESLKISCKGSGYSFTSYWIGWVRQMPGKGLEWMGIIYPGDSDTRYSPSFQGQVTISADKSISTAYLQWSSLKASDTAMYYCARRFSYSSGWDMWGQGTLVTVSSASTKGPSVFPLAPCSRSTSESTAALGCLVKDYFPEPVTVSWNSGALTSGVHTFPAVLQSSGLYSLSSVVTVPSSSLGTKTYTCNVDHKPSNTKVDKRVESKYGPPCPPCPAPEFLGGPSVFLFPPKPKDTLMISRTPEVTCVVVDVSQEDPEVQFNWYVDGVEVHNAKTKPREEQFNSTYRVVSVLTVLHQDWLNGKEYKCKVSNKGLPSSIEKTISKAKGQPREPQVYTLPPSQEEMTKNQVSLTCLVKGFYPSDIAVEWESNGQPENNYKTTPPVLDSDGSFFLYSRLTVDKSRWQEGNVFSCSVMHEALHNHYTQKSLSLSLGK
light: SYELTQPPSVSVSPGQTARITCSGDALTSKYVAWYQQKSGLAPLLVIYEDTRRPSGIPAKFSGSSSGSVATLTISGAHGDDEADYYCYSTDASGHQRVFGGGTKLTVLSQPKAAPSVTLFPPSSEELQANKATLVCLISDFYPGAVTVAWKADGSPVKAGVETTKPSKQSNNKYAASSYLSLTPEQWKSHRSYSCQVTHEGSTVEKTVAPTECS
notes: pH-dependent anti-C2 antibody from a phage display library; also called WT
By Kd is commonly meant the concentration at which binding is half-saturated. High values mean lower affinity, low ones higher affinity. Consider B1, for which the Kd worked out at 24.3 nM with human C2 H435A, 247 nM with human C2 D454A, 96.8 nM with human C2 F270A and 21.1 nM with human C2 S708A.
